# System: uterine epithelial cells (UEC)
# Assay: Sperm binding to UEC monolayer pre-incubated with lectin
# Type: cell-based, porcine
# Conditions: UEC pre-incubated with lectin 10 μg/ml 15 min, then sperm 10 min
# Protocol: Confluent UEC were grown on glass cover slips form primary cell cultures. In total, uteri from 78 primiparous German Landrace or German Edelschwein gilts aged 8-10 months and with live weights of over 110 kg, were retrieved to harvest primary cells. All animals were maintained and handled according to the German regulations for animal welfare. Gilts were monitored for natural oestrus and slaughtered according to standing heat, i.e. at the time when artificial insemination would have been performed. Gilts were stunned electrically and subsequently slaughtered by exsanguination. Three minutes after bleeding the abdomen was opened and the uterus removed in toto. Further, the ovaries, oviducts and the mesometrium were removed by cutting with sterile scissors without damaging the myometrium. The uterine horns were ligated with stitching thread between and a section of 20-25 cm was cut off. The sections were placed in sterile phosphate buffered saline (PBS) without Ca^++ and Mg^++ (Karl Roth, Karlsruhe, Germany) containing 2% Penicillin/Streptomycin (P/S; PAA, Pasching, Austria) in a glass bottle and kept at 5° C. for 45 min. After 45 min at 5° C. the uterine sections were removed from the bottle and placed on cellulose tissue under a sterile laminar flow system. The stitching material was removed. […]
molecule,measurement,value
"PNA: lectin with affinity for β-D-(1-3)-D-galactosamine (protein, UniProt P02872 24-273, looked up) Galactose-binding lectin: AETVSFNFNSFSEGNPAINFQGDVTVLSNGNIQLTNLNKVNSVGRVLYAMPVRIWSSATGNVASFLTSFSFEMKDIKDYDPADGIIFFIAPEDTQIPAGSIGGGTLGVSDTKGAGHFVGVEFDTYSNSEYNDPPTDHVGIDVNSVDSVKTVPWNSVSGAVVKVTVIYDSSTKTLSVAVTNDNGDITTIAQVVDLKAKLPERVKFGFSASGSLGGRQIHLIRSWSFTSTLITTTRRSIDNNEKKIMNMASA",effect on sperm binding to UEC (in words),"some areas showed massive sperm binding as seen with untreated UEC, whereas others were not populated at all"

# Reference: US20180200345A1, “PROCESS AND COMPOSITION FOR LOW DOSE INSEMINATION” (IMV TECHNOLOGIES, priority 2015, published 2018)
